Results taken from the supplement of paper PMC12764529.
± gives the half width of the 95% confidence interval.

Tests used:
[1] = folding stability dG unfold from trypsin proteolysis; higher = more stable
In short: (§1)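 Unfolding free energy was derived, per protease or combined, against a sequence-predicted unfolded-state K50 and a shared folded-state K50, starting from K50 inferred by Bayesian fitting of sequencing counts. Digestion with trypsin and chymotrypsin was carried out on designed mini-proteins under 80 residues without cysteine in a PA-tagged cDNA display construct. Only designs with AlphaFold2 dimer inter-PAE above 15 were kept.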

[2] = folding stability dG unfold from chymotrypsin proteolysis; higher = more stable
In short: as §1

[3] = folding stability dG unfold (combined trypsin and chymotrypsin); higher = more stable
In short: as §1

With “SAGGSAGGSKKPKFKVKKVEVVEENGKLRIRIVLEDGKKIEIEIKGLSKEEIEKKAKELLKKLSAGGSAGGS [r20_181_TrROS_Hall]” the “folding stability dG unfold” value [1] was 3.57 ± 0.33 kcal/mol, the “folding stability dG unfold” value [2] was 3.93 ± 0.2 kcal/mol and the “folding stability dG unfold” value [3] was 3.66 ± 0.22 kcal/mol.

For “SAGGSAGGSKKPVKVTVTVEVNPETGEITKVTVTEEYKDGTVTVTVTNANGEKLTFTFKIKKPSAGGSAGGS [r12_60_TrROS_Hall]”, the “folding stability dG unfold” value [1] was 2.15 ± 0.11 kcal/mol, the “folding stability dG unfold” value [2] was 3.099 ± 0.024 kcal/mol and the “folding stability dG unfold” value [3] was 2.79 ± 0.082 kcal/mol.

With “SAGGSAGGSKKVTIVLSKEELRELFENLTPEQIAELLKKKFPKIKRVEVKEVDGKLVIEVEVESAGGSAGGS [r12_590_TrROS_Hall]” the “folding stability dG unfold” value [1] was 3.15 ± 0.26 kcal/mol, the “folding stability dG unfold” value [2] was 3.59 ± 0.1 kcal/mol and the “folding stability dG unfold” value [3] was 3.43 ± 0.17 kcal/mol.

For “SAGGSAGGSKKVYLKVTVYHKNGKKTTLEIGPITDEDGKPIETYAKELAEHPDVEKVEVEVLGSAGGSAGGS [r12_199_TrMRF]”, the “folding stability dG unfold” value [1] was 3.79 ± 0.13 kcal/mol, the “folding stability dG unfold” value [2] was 4.19 ± 0.13 kcal/mol and the “folding stability dG unfold” value [3] was 4.05 ± 0.17 kcal/mol.

With “SAGGSAGGSKLKLEIPPGFKNVEIEVLKYNPDNGYIRVKITIYDPNNGKQFTMDRWIPADDLKSAGGSAGGS [r12_964_TrROS]” the “folding stability dG unfold” value [1] was 1.62 ± 0.099 kcal/mol, the “folding stability dG unfold” value [2] was 1.65 ± 0.16 kcal/mol and the “folding stability dG unfold” value [3] was 1.56 ± 0.19 kcal/mol.

For “SAGGSAGGSKLSEEEKKKLAKKPKIKIKVKIRNKDGKEYKPGEKVKIEINGKIYEIESIEIEPSAGGSAGGS [r12_43_TrROS_Hall]”, the “folding stability dG unfold” value [1] was 1.12 ± 0.049 kcal/mol, the “folding stability dG unfold” value [2] was 1.36 ± 0.04 kcal/mol and the “folding stability dG unfold” value [3] was 1.3 ± 0.085 kcal/mol.

In the case of “SAGGSAGGSKLVLRIVVRNKETGEWQTLELEIEVEESEEEALAKAKELLASLPEEDVKIEILPSAGGSAGGS [r12_871_TrROS_Hall]”, the “folding stability dG unfold” value [1] is reported as 3.18 ± 0.14 kcal/mol, the “folding stability dG unfold” value [2] is reported as 3.79 ± 0.065 kcal/mol and the “folding stability dG unfold” value [3] is reported as 3.56 ± 0.071 kcal/mol.

With “SAGGSAGGSKNDWGEFDAEVPFFKEKKKVKIYKNPDNPNIYYIEFPKTGKIFKVYPNGEIKEESAGGSAGGS [r12_580_TrMRF]” the “folding stability dG unfold” value [1] was 1.01 ± 0.062 kcal/mol, the “folding stability dG unfold” value [2] was 1.75 ± 0.17 kcal/mol and the “folding stability dG unfold” value [3] was 1.49 ± 0.16 kcal/mol.

With “SAGGSAGGSKPKRRRVQIELPLPPGKPITPDHIREFMRPFGAPKVEITNIHPTNGRWIITFELSAGGSAGGS [r20_79_TrROS]” the “folding stability dG unfold” value [1] was 1.98 ± 0.031 kcal/mol, the “folding stability dG unfold” value [2] was 2.6 ± 0.11 kcal/mol and the “folding stability dG unfold” value [3] was 2.42 ± 0.14 kcal/mol.

With “SAGGSAGGSKPLVIRVRLTYYDEKTGKKVKEVELTLTVSEEEAKKLAEELKKLYPNVEVEIFPSAGGSAGGS [r12_342_TrROS_Hall]” the “folding stability dG unfold” value [1] was 4.37 ± 0.53 kcal/mol, the “folding stability dG unfold” value [2] was 4.67 ± 0.13 kcal/mol and the “folding stability dG unfold” value [3] was 4.84 ± 0.39 kcal/mol.

With “SAGGSAGGSKPPPTVEIEITLEDGTVLRIRVTPDRIEIENLETGKRFTFPPGATIEIEVRKLPSAGGSAGGS [r12_227_TrROS_Hall]” the “folding stability dG unfold” value [1] was 3.95 ± 0.82 kcal/mol, the “folding stability dG unfold” value [2] was 3.73 ± 0.49 kcal/mol and the “folding stability dG unfold” value [3] was 4.19 ± 0.56 kcal/mol.

For “SAGGSAGGSKPPVKTIPRWIPFPPGQTPNELVDELRKLFPPGMEVDVEYDPEPGYVRVSITFRSAGGSAGGS [r12_12_TrROS]”, the “folding stability dG unfold” value [1] was 2.19 ± 0.042 kcal/mol, the “folding stability dG unfold” value [2] was 1.86 ± 0.047 kcal/mol and the “folding stability dG unfold” value [3] was 2.06 ± 0.097 kcal/mol.

For “SAGGSAGGSKPRLVLEIKIKAESEEEAREEVEKALQEKFGLKIKSVEIEREEDYITVRVEIEPSAGGSAGGS [r12_265_TrROS_Hall]”, the “folding stability dG unfold” value [1] was 2.26 ± 0.081 kcal/mol, the “folding stability dG unfold” value [2] was 2 ± 0.061 kcal/mol and the “folding stability dG unfold” value [3] was 1.92 ± 0.23 kcal/mol.

For “SAGGSAGGSKQILKKLGLPPGKEVQIMMTPNDMNELRDLPGIKSIKMEPRPDGYYQHSIRIDNSAGGSAGGS [r12_750_TrROS]”, the “folding stability dG unfold” value [1] was -1.31 ± 0.59 kcal/mol, the “folding stability dG unfold” value [2] was -0.386 ± 0.33 kcal/mol and the “folding stability dG unfold” value [3] was -0.583 ± 0.49 kcal/mol.

For “SAGGSAGGSKTLKIEIPVEEESEEEARKKIKEALKELGIKEITEEDIKIERKEDGTLRAEIKLSAGGSAGGS [r12_122_TrROS_Hall]”, the “folding stability dG unfold” value [1] was 0.987 ± 0.084 kcal/mol, the “folding stability dG unfold” value [2] was 0.343 ± 0.11 kcal/mol and the “folding stability dG unfold” value [3] was 0.817 ± 0.17 kcal/mol.

For “SAGGSAGGSKTLVIEEDGELYKVRITNKNGKEIEIVMSADEIKKLPPNAKVEVEKIKLPEKKPSAGGSAGGS [r12_419_TrROS_Hall]”, the “folding stability dG unfold” value [1] was 1.18 ± 0.028 kcal/mol, the “folding stability dG unfold” value [2] was 1.52 ± 0.067 kcal/mol and the “folding stability dG unfold” value [3] was 1.36 ± 0.062 kcal/mol.

With “SAGGSAGGSKVDIVKVEVYEVESPLGGRYYLVKVYRKDGRPILVLASPSTTPEEVLKKAEEAESAGGSAGGS [r12_1047_TrMRF]” the “folding stability dG unfold” value [1] was 1.96 ± 0.049 kcal/mol, the “folding stability dG unfold” value [2] was 2.78 ± 0.053 kcal/mol and the “folding stability dG unfold” value [3] was 2.48 ± 0.12 kcal/mol.

With “SAGGSAGGSKVIPITFPKSLSLEQIEDFVRKIAAESGAKVKSVKIVDVDPENNRVTVLVEVEGSAGGSAGGS [r12_168_TrMRF]” the “folding stability dG unfold” value [1] was 3.14 ± 0.042 kcal/mol, the “folding stability dG unfold” value [2] was 3.34 ± 0.038 kcal/mol and the “folding stability dG unfold” value [3] was 3.31 ± 0.079 kcal/mol.

With “SAGGSAGGSKWIKIMYMIPPGDPEEIIEKLLPPGYKIEEVEVQRMPGYFMVDITIRDEDPDAISAGGSAGGS [r12_445_TrROS]” the “folding stability dG unfold” value [1] was 2.46 ± 0.11 kcal/mol, the “folding stability dG unfold” value [2] was 2.37 ± 0.16 kcal/mol and the “folding stability dG unfold” value [3] was 2.37 ± 0.21 kcal/mol.

With “SAGGSAGGSLIPADRTYKVTVTVEGDKVILTLTDPTSSVTYTLTLDIGPEKVPAGSTLTYTGSSAGGSAGGS [r12_525_JUSTAS]” the “folding stability dG unfold” value [1] was 1.22 ± 0.075 kcal/mol, the “folding stability dG unfold” value [2] was 1.7 ± 0.19 kcal/mol and the “folding stability dG unfold” value [3] was 1.56 ± 0.25 kcal/mol.

With “SAGGSAGGSLVIPLPNGGRIEVLEVGEDYVLVRLVDPMPGTNKPRVSEIRLKLPPLKPPPPDKSAGGSAGGS [r12_959_TrMRF]” the “folding stability dG unfold” value [1] was 2.36 ± 0.073 kcal/mol, the “folding stability dG unfold” value [2] was 2.14 ± 0.032 kcal/mol and the “folding stability dG unfold” value [3] was 2.28 ± 0.11 kcal/mol.
